Assay results taken from paper PMC12904073, “Two Novel S‐methyltransferases Confer Dimethylsulfide Production in Actinomycetota” (Advanced Science, 2025).

Columns and labels:
MddM1 = system: T1, MddM1; experiment: GC detection of DMS, Michaelis-Menten fit; assay type: biochemical, Mycolicibacterium poriferae; conditions: pH 9, 40 °C
T1 construct: full length (210 aa, ~23 kDa native), GST-tagged in pGEX-4T-1, expressed in E. coli BL21(DE3), glutathione Sepharose purified; no tag removal told

[1] = substrate: CS; experiment: GC detection of DMS, Michaelis-Menten fit; assay type: biochemical, Thermobispora bispora; conditions: pH 8, 30 °C, SAM fixed at 1 mM, GST-tagged enzyme 2 µg
purified protein = substrate: C[S+](CC[C@H](N)C(=O)O)C[C@H]1O[C@@H](n2cnc3c(N)ncnc32)[C@H](O)[C@@H]1O; experiment: purified protein; conditions: pH 8, 30 °C, MeSH as co-substrate fixed at 1 mM, methyl donor

C[S+](CC[C@H](N)C(=O)O)C[C@H]1O[C@@H](n2cnc3c(N)ncnc32)[C@H](O)[C@@H]1O (some centres unmarked) [S-adenosine-methionine]
Km (MddM1; MeSH as co-substrate fixed at 1 mM, methyl donor): 110 ± 50 µM

CS [methanethiol]
Km (MddM1; SAM fixed at 1 mM, GST-tagged enzyme 1 µg): 760 µM

B1: TbMddM2 (Thermobispora bispora DSM 43833) (protein)
chain: MSAADVLPVNHHADHPGFSGVIGTVIGLIFLLAGRPTARLAADLAAVGPGDRVADIGCGPGTAVREAARRGAQATGVDPAPVMLRWARMAGRGEAMEWREGTAERVPLPDGWATVWWSLATVHHWKDVEAGLREAYRVLAPGGRLLAMERQIAPGATGQASHGWTRRQADAFADHCRAAGFTDVTVTAHRAGRRDVWVVTATRP
Km [1]: 220 µM | Km (purified protein): 20 ± 10 µM | kcat (purified protein): 0.05 ± 0.01 s⁻¹
